Results from patent US20260347464 (published 2026).

T1: MusCD100-His (mouse, UniProt O09126)
T1 chain: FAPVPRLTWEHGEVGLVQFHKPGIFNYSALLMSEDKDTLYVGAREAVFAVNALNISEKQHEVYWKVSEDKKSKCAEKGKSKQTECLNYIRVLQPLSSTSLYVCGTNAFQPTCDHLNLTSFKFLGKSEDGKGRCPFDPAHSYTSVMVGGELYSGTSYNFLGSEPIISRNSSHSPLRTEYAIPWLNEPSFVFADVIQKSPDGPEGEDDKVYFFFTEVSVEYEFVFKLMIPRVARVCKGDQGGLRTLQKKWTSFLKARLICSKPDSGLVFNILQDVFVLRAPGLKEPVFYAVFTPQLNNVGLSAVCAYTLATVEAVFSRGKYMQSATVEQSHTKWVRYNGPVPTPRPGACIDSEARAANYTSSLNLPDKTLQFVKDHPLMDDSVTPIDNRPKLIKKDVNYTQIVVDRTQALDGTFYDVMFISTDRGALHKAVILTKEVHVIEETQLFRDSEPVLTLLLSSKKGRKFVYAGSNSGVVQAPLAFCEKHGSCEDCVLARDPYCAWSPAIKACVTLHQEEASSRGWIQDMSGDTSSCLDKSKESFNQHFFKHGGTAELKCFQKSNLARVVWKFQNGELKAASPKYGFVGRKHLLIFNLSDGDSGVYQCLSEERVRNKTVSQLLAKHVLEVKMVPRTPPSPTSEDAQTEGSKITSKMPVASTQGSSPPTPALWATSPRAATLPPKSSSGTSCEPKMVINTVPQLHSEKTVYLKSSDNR

T2: MusCD100 (cell surface) (mouse, UniProt O09126)
T2 chain: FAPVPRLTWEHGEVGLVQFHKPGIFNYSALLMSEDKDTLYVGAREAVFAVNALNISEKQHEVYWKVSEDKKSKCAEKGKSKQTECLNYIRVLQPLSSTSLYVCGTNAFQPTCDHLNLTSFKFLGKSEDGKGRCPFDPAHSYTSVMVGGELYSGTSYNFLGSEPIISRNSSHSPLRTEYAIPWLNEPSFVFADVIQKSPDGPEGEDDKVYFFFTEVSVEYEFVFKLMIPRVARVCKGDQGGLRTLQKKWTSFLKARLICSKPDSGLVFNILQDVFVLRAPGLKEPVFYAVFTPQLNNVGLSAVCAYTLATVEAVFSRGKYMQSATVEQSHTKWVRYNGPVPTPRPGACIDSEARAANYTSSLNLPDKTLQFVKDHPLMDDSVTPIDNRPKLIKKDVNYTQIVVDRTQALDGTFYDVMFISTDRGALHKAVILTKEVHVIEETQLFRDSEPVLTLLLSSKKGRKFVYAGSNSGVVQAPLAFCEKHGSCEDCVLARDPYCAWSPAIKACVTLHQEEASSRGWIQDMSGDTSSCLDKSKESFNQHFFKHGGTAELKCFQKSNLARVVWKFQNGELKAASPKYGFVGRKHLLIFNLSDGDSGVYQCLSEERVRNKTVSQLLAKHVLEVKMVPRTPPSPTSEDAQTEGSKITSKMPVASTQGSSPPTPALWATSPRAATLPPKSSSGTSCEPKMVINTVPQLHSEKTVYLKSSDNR


What was measured:
HuCD100 (cell surface) [1] = target: T3, HuCD100 (cell surface) (human, UniProt Q92854); experiment: FACS, HuPBMC
T3 sequence (Q92854 22-734): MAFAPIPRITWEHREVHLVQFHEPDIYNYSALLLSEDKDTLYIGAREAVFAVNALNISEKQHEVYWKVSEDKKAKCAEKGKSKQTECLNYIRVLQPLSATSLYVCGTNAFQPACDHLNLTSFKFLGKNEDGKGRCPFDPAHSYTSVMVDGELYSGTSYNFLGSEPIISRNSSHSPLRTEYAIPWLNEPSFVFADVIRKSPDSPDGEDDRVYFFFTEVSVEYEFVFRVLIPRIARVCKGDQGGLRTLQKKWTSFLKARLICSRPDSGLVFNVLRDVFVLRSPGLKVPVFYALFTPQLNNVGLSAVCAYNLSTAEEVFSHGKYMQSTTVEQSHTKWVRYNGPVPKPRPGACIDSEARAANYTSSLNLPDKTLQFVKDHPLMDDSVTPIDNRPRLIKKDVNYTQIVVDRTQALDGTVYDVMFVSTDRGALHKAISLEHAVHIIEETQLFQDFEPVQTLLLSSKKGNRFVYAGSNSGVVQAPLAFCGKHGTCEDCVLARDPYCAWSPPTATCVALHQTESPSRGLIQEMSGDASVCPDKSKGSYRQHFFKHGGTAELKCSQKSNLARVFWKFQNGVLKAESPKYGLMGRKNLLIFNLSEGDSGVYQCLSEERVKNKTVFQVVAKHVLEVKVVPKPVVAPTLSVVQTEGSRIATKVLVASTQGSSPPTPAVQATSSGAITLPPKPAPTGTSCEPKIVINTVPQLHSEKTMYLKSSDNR

HuCD100-His = HuCD100-His (human, UniProt Q92854); experiment: ELISA
Sequence of HuCD100-His (Q92854 22-734): as above

MusCD100-His = target: T1, MusCD100-His; experiment: ELISA
HuCD100 (cell surface) [2] = target: T3, HuCD100 (cell surface); experiment: FACS, HEK293
MusCD100 (cell surface) = target: T2, MusCD100 (cell surface); experiment: FACS, HEK293
HuCD100 (cell surface) [3] = target: T3, HuCD100 (cell surface); experiment: FACS, Jurkat

Row | Binder | EC50 (HuCD100 (cell surface) [1]) [µg/mL] | EC50 (HuCD100-His) [µg/mL] | EC50 (MusCD100-His) [µg/mL] | EC50 (HuCD100 (cell surface) [2]) [µg/mL] | EC50 (MusCD100 (cell surface)) [µg/mL] | EC50 (HuCD100 (cell surface) [3]) [µg/mL]
1 | H21 (antibody, V domains shown) VH: EVQLVQSGGGLVQPGRSLRLSCAASGFTFDDYAMHWVRQAPGKGLEWVSGISWNSGSIGYADSVKGRFTISRDNAKNSLYLQMNSLRAEDTALYYCAKDIGGSYFDYYYYGMDVWGQGTLVTVSS VL: EIVLTQSPATLSLSPGERATLSCRTSHNVNTYIAWYQQKPGQAPRLLFYDSSTRLPDTPARFSGSGSGTDFTLTISSLEPEDFAVYYCQQRTSWPLTFGGGTKVEIK | 0.0154 | 0.00595 | 0.00686 | 0.0374 | 0.0814 | 0.0258
2 | H12 (antibody, V domains shown) VH: QVQLQESGPGLVKPSGTLSLTCAVSGGSISSSNWWSWVRQPPGKGLEWIGEIYHSGSTNYNPSLKSRVTISVDKSKNQFSLKLSSVTAADTAVYYCARFVSSGYLGAFDIWGQGTMVTVSS VL: QSVLTQPPSVSVSPGQTASITCSGDRLGDKYSYWYQQKPGQSPVLVIYQDSKRPSGIPERFSGSNSGNTATLTISGTQAMDEADYYCQVWDSSTAVFGGGTKLTVL | 0.0177 | 0.0113 | 0.0112 | 0.0369 | 0.0758 | 0.028
3 | C-C171 (antibody, V domains shown) VH: QVQLQESGPGLVKPSGTLSLSCTVSGGSMSSNYLWSWVRQTPGKGLQWIGDIFHSGRTYYNPSLKRRVTISVDKSKNQFSLKLSSVTAADTAVYYCARQGWTTPFDYWGQGTPVTVSS VL: DIQLTQSPSSVSASVGDRVTITCRASQGISSWLAWYQQKPGKAPKLLIYAASSLQSGVPSRFSGSGSGTDFTLTISSLQPEDFATYYCLQDVYYPWTFGQGTTVEIK | 0.0859 | 0.0107 | 0.031 | 0.167 | 0.31 | 0.449
4 | A15 (antibody, V domains shown) VH: EVQLLESGGGLIQPGGSLRLSCAASGFTVSSNYMSWVRQAPGKGLEWVSVIYSGGSTYYADSVKGRFTISRDNSKNTLYLQMNSLRAEDTAVYYCAREVEGGMDVWGQGTTVTVSS VL: SYVLTQPPSVSVSPGQTASIICSGDKLGDKYVYWYQQKSGQSPVLVIYQDRKRPSGIPERFSGSNSGNTASLAISGLQSEDEADYYCAAWDDSLNGWVFGGGTKLTVL | 0.00589 | 0.0076 | 0.0101 | 0.0269 | 0.0548 | 0.00851
5 | C-B71 (antibody, V domains shown) VH: QVQLQESGPGLVKPSQTLSLTCTVSGGSISSGGYYWSWIRQHPGKGLEWIGYIYYSGSTYYNPSLKSRVTISVDTSKNQFSLKLSSVTAADTAVYYCAREGVAAAGIDYWGQGTPVTVSS VL: NIQLTQSPSSVSASVGDRVTITCRASQGISSWLAWYQQKPGKAPKLLISTASSVQSGVPTRFSASGSGTDFTLTISSLQPEDFATYYCQQGYRTPWTFGQGTKVEIK | 0.177 | 0.0119 | 0.00936 | 0.0879 | 0.118 | 0.108
6 | H96 (antibody, V domains shown) VH: QVQLQQWGAGLLKPSETLSLTCAVYGGSFSGYYWSWIRQPPGKGLEWIGEINHSGSTNYNPSLKSRVTISVDTSKNQFSLKLSSVTAADTAVYYCARESNSYGYGTDYWGQGTLVTVSS VL: QSALTQPPSVSVSPGQTATITCSGDKLGEKYAFWYQQKPGQSPVLVIYQDNKRPSGIPERFTGSNSGNTATLTIFGTQTMDEADYYCQAWDSSTYVFGTGTKVTVL | 0.0104 | 0.00968 | 0.0109 | 0.0225 | 0.0504 | 0.0162
7 | H74 (antibody, V domains shown) VH: QVQLQQWGAGLLKPSETLSLTCAVYGGSFSGYYWSWIRQPPGKGLEWIGEINHSGSTNYNPSLKSRVTISVDTSKNQFSLKLSSVTAADTAVYYCAGTRWLQFPLNYWGQGTLVTVSS VL: SYVLTQPPSVSVSPGQTASITCSGDKLGDKYAYWYQQKPGQSPVLVLYQDAKRPSGIPERFSGSNSGNTATLTISGTQAMDEADYYCQAWDSSTAGYVFGTGTKVTVL | 0.00828 | 0.00467 | 0.00478 | 0.0274 | 0.05 | 0.0138
8 | B13 (antibody, V domains shown) VH: QVQLQQWGAGLLKPSETLSLTCAISSGSFSGYYWTWIRQPPGKGLEWIGETNHNGFTTYNTSLKSRITISIDASKNQFYLNLSSVTAADTATYFCARGPAYYADALDGFDIWGQGTMVTVSS VL: QSVLTQPPSVSVSPGQTASITCSGDKLGDKYVSWYQQKPGQSPVLVIYQDNKRPSGIPERFSGSNSGNTATLTISGTQAMDEADYYCQAWDSSTKAYVFGAGTKVTVL | 0.0109 | 0.00733 | 0.00842 | 0.0346 | 0.0697 | 0.0185
9 | H5 (antibody, V domains shown) VH: QLQLQESGPGLVKPPGTLSLTCAVSGGSISSSNWWSWVRQPPGKGLEWIGEIYHSGSTNYNPSLKSRVTISVDTSKNQFSLKLSSVTAADTAVYYCAVYDFWSGSGLDYWGQGTLVTVSS VL: SYVLTQPPSVSVSPGQTASITCSGDKLGDKFASWYQQKPGQSPVLVIYQDRKRPSRIPERFSGSNSGNTATLTITGTQTIDEADYYCQAWDSGTVIFGGGTKLTVL | 0.0132 | 0.00639 | 0.00722 | 0.0288 | 0.0606 | 0.0184
10 | C-C081 (antibody, V domains shown) VH: QVQLLESGGGLVKPGGSLRLSCAASGFTFSSYSMNWVRQAPGKGLEWVSSISSSSSYIYYADSVKGRFTISRDNAKNSLYLQMNSLRAEDTAVYYCARDHYPGPDAFDVWGQGTMVTVSS VL: not shown | 0.0194 | 0.0141 | 0.0541 | 0.0927 | 0.185 | 0.73
11 | A14 (antibody, V domains shown) VH: ETQLVESGGGLVQPGGSLRLSCAASGFPFSSYEMNWVRQAPGKGLEWVAEISSSGSTIYYADSVKGRFTISRDNAKKSLYLQMNSLRAEDTAVYYCARGRFEGYCSSTNCHTGAFDFWGQGTMVTVSS VL: not shown | 0.0145 | 0.00613 | 0.00792 | 0.0277 | 0.0599 | 0.0195
